Experimental data as given in US20240043568A1 (KEYMED BIOSCIENCES, published 2024).
Changes are numbered by the printed parent chain.

T1: human CD3εγ-Fc heterodimer (human)
T1 construct: also called human CD3 εγ protein; recombinant CD3 εγ protein
T1 chain 1: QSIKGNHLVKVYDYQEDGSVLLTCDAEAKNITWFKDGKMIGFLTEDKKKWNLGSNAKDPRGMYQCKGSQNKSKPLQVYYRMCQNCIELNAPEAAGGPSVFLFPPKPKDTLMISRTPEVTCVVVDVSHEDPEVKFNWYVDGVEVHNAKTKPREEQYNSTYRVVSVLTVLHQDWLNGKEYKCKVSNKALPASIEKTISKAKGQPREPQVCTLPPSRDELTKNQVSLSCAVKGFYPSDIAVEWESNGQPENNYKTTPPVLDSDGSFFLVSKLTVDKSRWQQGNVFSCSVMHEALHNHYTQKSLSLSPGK
T1 chain 2: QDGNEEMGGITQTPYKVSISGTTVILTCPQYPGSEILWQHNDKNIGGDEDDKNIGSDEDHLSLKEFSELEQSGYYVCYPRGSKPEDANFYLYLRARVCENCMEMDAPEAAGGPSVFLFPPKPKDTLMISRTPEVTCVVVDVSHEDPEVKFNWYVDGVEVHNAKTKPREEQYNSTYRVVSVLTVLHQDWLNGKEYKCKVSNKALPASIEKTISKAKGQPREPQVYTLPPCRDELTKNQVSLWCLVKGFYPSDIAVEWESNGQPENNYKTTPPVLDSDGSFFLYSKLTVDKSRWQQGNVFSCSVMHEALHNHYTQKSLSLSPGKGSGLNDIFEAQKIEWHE

B1: aCD3-hVH8/VL5 (antibody, V domains shown)
VH: EVQLVESGGGLVQPGGSLRLSCAASGFTFNTYAMNWVRKAPGKGLEWVGRIRSKYNNYATYYADSVKDRFTISRDDSKNSLYLQMNSLKTEDTAVYYCARHGNFGNSYVSWFAYWGQGTLVTVSS
VL: QAVVTQEPSLTVSPGGTVTLTCRSSTGAVTTSNYANWVQEKPGQAPRGLIGGTNKRAPWTPARFSGSLLGGKAALTITGAQAEDEAEYYCVLWYSNLWVFGGGTKLTVL
notes: Human IgG4, lambda
B2: aCD3-hVH9/VL3 (antibody, V domains shown)
VH: B1 VH with A99V
VL: B1 VL with Q1E, R23E, T26D, R56E, I77L, T78S, A82P, V91A
notes: Human IgG4, lambda
B3: 5D6 (antibody, V domains shown)
VH: QVQLQQSGAELVRPGASVKLSCKALGYTFADYEIHWVKQTPVHGLEWIGAIHPGSGGTAYNQTFEGKATLTADKSSTTAYMELSSLTSEDSAVYYCTRYYSFAYWGQGTLVTVSA
VL: DVLMTQTPLSLPVSLGDQASISCRSSQSLVHSNGNTYLHWYLQKPGQSPKLLIYKVSNRFSGVPDRFSGSGSGTDFTLKISRVEAEDLGVYFCSQSTHVPLTFGAGTKLELK
notes: Chimeric IgG: murine variable regions on human IgG1 CH1-CH3 and an antibody light chain constant region
B4: 47B6 (antibody, V domains shown)
VH: QVQLQQSGAELMKPGASVKISCKATGYTFSSYWIEWVKQRPGHGLEWIGEILPGSGSTNYNEKFKGKATFTADTSSNTAYMQLSSLTSEDSAVYYCARGYWGQGTLVTVSA
VL: B3 VL with V2I, L3V, T7A, L101R, A105G, L111I
notes: Chimeric human IgG1
B5: 19F1 (antibody, V domains shown)
VH: B3 VH
VL: DVLMTQTPLSLPVSLGDQASISCRSSQSLVHSNGNTYLHWYLQKPGQSPKLLIYKVSNRFSGVPDRFSGSGSGTDFTLKISRVEAEDLGVYFCSQSTHIPTFGGGTKLELK
notes: Chimeric human IgG1
B6: 46C3 (antibody, V domains shown)
VH: QVQLQQSGPELVKPGASVKISCKASGYTFTDYYINWVKQKPGQGLEWIGWIYPGSGNTKYNEKFKGKATLTVDTSSSTAYMQLSSLTSEDTAVYFCARGRWGQGTLVTVSA
VL: B3 VL with L3V, G16R, L101R, A105G
notes: Chimeric human IgG1
B7: 30B7 (antibody, V domains shown)
VH: B3 VH with K19R, A30T, I34M, T63K, E65K, T77S
VL: B3 VL with L111I
notes: Chimeric human IgG1
B8: 28G4 (antibody, V domains shown)
VH: B3 VH with Q1E, E65K
VL: B3 VL with L29I, H39Q, F92Y, S94F, S96G, T97S, L101Y, A105G, L111I
notes: Chimeric human IgG1
B9: 41F1 (antibody, V domains shown)
VH: B3 VH
VL: B3 VL with S96N
notes: Chimeric human IgG1
B10: 41H1 (antibody, V domains shown)
VH: B3 VH
VL: B3 VL with L3V, K79R, H98R
notes: Chimeric human IgG1
B11: 38D2 (antibody, V domains shown)
VH: B3 VH
VL: DVVMTQTPLSLPVSLGDQASISCRSSQSLENSNGNTYLNWYLQKPGQSPQLLIYRVSNRFSGVLDRFSGSGSGTDFTLKISRVEAEDLGVYFCLQVTHVPYTFGGGTKLEIK
notes: Chimeric human IgG1
B12: 29A10 (antibody, V domains shown)
VH: B3 VH with Q1E, E65K
VL: B3 VL with L3V, L111I
notes: Chimeric human IgG1
B13: 30A4 (antibody, V domains shown)
VH: B3 VH with T28A, E65K
VL: B3 VL with L3V
notes: Chimeric human IgG1
B14: 39G4 (antibody, V domains shown)
VH: B3 VH
VL: B5 VL with L3V, M4V, I99V, L110I
notes: Chimeric human IgG1
B15: 34H1 (antibody, V domains shown)
VH: B3 VH
VL: B3 VL with L3V, T97I
notes: Chimeric human IgG1
B16: 42A1 (antibody, V domains shown)
VH: B3 VH with N61S, E65K, Y100F
VL: B3 VL with L3V, M4V, V99A, L101Y, A105G, K108R, L111I
notes: Chimeric human IgG1
B17: h49G8VHv6VKv2 (antibody, V domains shown)
VH: QVQLVQSGAEVKKPGSSVKVSCKASGYTFADYEIHWVRQAPGQGLEWMGAIHPGSGGTAYAQKFQGRVTLTADESSTTAYMELSSLRSEDTAVYYCTRYYSFAYWGQGTLVTVSS
VL: DVVMTQSPLSLPVTPGEPASISCRSSQSIVHSNYNTYLEWYLQKPGQSPQLLIYKVSNRFSGVPDRFSGSGSGTDFTLKISRVEAEDVGVYFCLQVTHVPLTFGQGTKLEIK
notes: Humanized 49G8; The name is read as h49G8VHv6 plus h49G8VKv2
B18: h49G8VHv6VKv4 (antibody, V domains shown)
VH: B17 VH
VL: B17 VL with Y34S
notes: Humanized 49G8
B19: h49G8VHv6VKv5 (antibody, V domains shown)
VH: B17 VH
VL: B17 VL with Y34T
notes: Humanized 49G8

Target: T1, human CD3εγ-Fc heterodimer
Assay: ELISA, coated human CD3εγ protein
Protocol: Human CD3 εγ protein was coated overnight at 4° C. After blocking with 2% skim milk, different dilutions of CD3 antibodies was added to each well and incubated for 1 hour. The secondary antibody HPR-labeled goat anti-human IgG Fc was added. After being developed by the TMB solution, the reaction was stopped with the concentrated sulfuric acid, and the absorbance was read at 450 nm (the results are shown in FIG. 12 and Table 8).

Point of comparison: B1, EC50 0.74 nM. Against it:
- B2 — within 1.5-fold, 0.7 nM

Target: T2, human GPC3 on cells (human, UniProt P51654 25-563)
T2 construct: whole, on cells; One molecule is used for both CHO-hGPC3 transfectants and GPC3+ HepG2 cells; The assay field names the cell; also called CHO-hGPC3 (clone 2B10); CHO-human GPC3
Assay: flow cytometry, CHO-human GPC3 cells
Protocol: The binding of the antibodies to human GPC3 stably-transfected cells was detected by FACS. CHO-human GPC3 stably-transfected cells prepared in Example 1 in the logarithmic growth phase were adjusted to 5×10⁵ cells/ml with 4% calf serum (Hyclone, SH30626.06). 100 μl/well of cell suspension was added to a 96-well U-plate, and centrifuged at 300 g for 5 min. The supernatant was discarded. 100 μL of gradient diluted antibodies (initial concentration 200 nM, 3-fold dilution, 12 gradients) was added to each well and incubated at 4° C. for 45 min. The secondary antibody Alexa Fluro647 labeled goat anti-human IgG Fc (1:300 dilution) was added at 50 μL/well, incubated on ice for 45 minutes, and detected by flow cytometry.

Point of comparison: B14, EC50 2.79 nM. Against it:
- B3 — within 1.5-fold, 3.73 nM
- B4 — 7.3-fold lower, 0.38 nM
- B5 — within 1.5-fold, 3.59 nM
- B6 — 6.1-fold lower, 0.46 nM
- B7 — within 1.5-fold, 2.78 nM
- B8 — within 1.5-fold, 2.87 nM
- B9 — 3.1-fold lower, 0.91 nM
- B10 — 2.6-fold lower, 1.07 nM
- B11 — within 1.5-fold, 3.35 nM
- B12 — within 1.5-fold, 3.39 nM
- B13 — within 1.5-fold, 3.68 nM
- B15 — within 1.5-fold, 2.1 nM
- B16 — 2.4-fold higher, 6.69 nM

Target: T3, recombinant human GPC3 protein (human, UniProt P51654 25-563)
T3 construct: also called human GPC3 full-length protein; recombinant GPC3 protein
Assay: BLI (Octet), antibody on Protein A probe
Protocol: (§1) Using BLI technology (Octet), the antibody to be tested was captured on the Protein A probe. The binding capacity with human GPC3 protein (10 μg/ml as the initial concentration, 2-fold gradient, a total of 5 concentration points) was detected. The affinity constant KD was obtained according to the association and dissociation rates.

Point of comparison: B12, Kd 19.8 nM. Against it:
- B3 — within 1.5-fold, 27.7 nM
- B4 — 2.4-fold higher, 48.2 nM
- B5 — within 1.5-fold, 18.3 nM
- B6 — within 1.5-fold, 24.3 nM
- B7 — 1.8-fold lower, 10.9 nM
- B8 — 1.8-fold lower, 11.3 nM
- B9 — within 1.5-fold, 18.5 nM
- B10 — within 1.5-fold, 25 nM
- B11 — 1.8-fold lower, 11.3 nM
- B13 — within 1.5-fold, 19.9 nM
- B14 — within 1.5-fold, 26.2 nM
- B15 — 1.5-fold lower, 12.9 nM
- B16 — 2-fold higher, 40.5 nM

Point of comparison: B13, koff 0.00258 s⁻¹. Against it:
- B3 — within 1.5-fold, 0.00292 s⁻¹
- B4 — 1.7-fold lower, 0.00149 s⁻¹
- B5 — within 1.5-fold, 0.00213 s⁻¹
- B6 — 1.7-fold lower, 0.00154 s⁻¹
- B7 — 3.3-fold lower, 0.000783 s⁻¹
- B8 — 2.3-fold lower, 0.00112 s⁻¹
- B9 — within 1.5-fold, 0.00181 s⁻¹
- B10 — within 1.5-fold, 0.00264 s⁻¹
- B11 — 3.1-fold lower, 0.000832 s⁻¹
- B12 — within 1.5-fold, 0.00281 s⁻¹
- B14 — within 1.5-fold, 0.00208 s⁻¹
- B15 — within 1.5-fold, 0.00221 s⁻¹
- B16 — within 1.5-fold, 0.00243 s⁻¹

Point of comparison: B5, kon 116000 M⁻¹ s⁻¹. Against it:
- B3 — within 1.5-fold, 105000 M⁻¹ s⁻¹
- B4 — 3.8-fold lower, 30800 M⁻¹ s⁻¹
- B6 — 1.8-fold lower, 63600 M⁻¹ s⁻¹
- B7 — 1.6-fold lower, 71700 M⁻¹ s⁻¹
- B8 — within 1.5-fold, 98900 M⁻¹ s⁻¹
- B9 — within 1.5-fold, 97900 M⁻¹ s⁻¹
- B10 — within 1.5-fold, 106000 M⁻¹ s⁻¹
- B11 — 1.6-fold lower, 73400 M⁻¹ s⁻¹
- B12 — within 1.5-fold, 142000 M⁻¹ s⁻¹
- B13 — within 1.5-fold, 130000 M⁻¹ s⁻¹
- B14 — within 1.5-fold, 79500 M⁻¹ s⁻¹
- B15 — within 1.5-fold, 171000 M⁻¹ s⁻¹
- B16 — 1.9-fold lower, 60000 M⁻¹ s⁻¹

Target: T3, recombinant human GPC3 protein
Assay: BLI (Octet), antibody on Protein A probe
Remark: another data set of the same source
Protocol: as §1, with “rates. The 49G8 humanized antibody binds to the recombinant GPC3 protein with high affinity. The affinity data is seen in Table 6.” for “rates.”

Point of comparison: B17, Kd 2 nM. Against it:
- B18 — within 1.5-fold, 2.28 nM
- B19 — within 1.5-fold, 2.15 nM

Point of comparison: B18, koff 0.000205 s⁻¹. Against it:
- B17 — within 1.5-fold, 0.000187 s⁻¹
- B19 — within 1.5-fold, 0.000193 s⁻¹

Point of comparison: B17, kon 93600 M⁻¹ s⁻¹. Against it:
- B18 — within 1.5-fold, 89900 M⁻¹ s⁻¹
- B19 — within 1.5-fold, 90000 M⁻¹ s⁻¹

Target: T2, human GPC3 on cells
Assay: flow cytometry on human GPC3-CHO stably-transfected cells, MFI

Point of comparison: B19, “EC50 (read off the curve)” value ~2 nM. Against it:
- B17 — the same, ~2 nM
- B18 — the same, ~2 nM

Target: T3, recombinant human GPC3 protein
Assay: ELISA on coated recombinant human GPC3 protein, OD450 [panel Recombinant human GPC3 protein]

Point of comparison: B19, “EC50 (read off the curve)” value ~0.03 nM. Against it:
- B17 — the same, ~0.03 nM
- B18 — the same, ~0.03 nM

Target: recombinant cynomolgus monkey GPC3 full-length protein (cynomolgus monkey, UniProt A0A2K5VK50 24-558)
Assay: ELISA on coated recombinant cynomolgus monkey GPC3 protein, OD450 [panel Recombinant cynomolgus monkey GPC3 protein]

Point of comparison: B18, “EC50 (read off the curve)” value ~0.03 nM. Against it:
- B17 — the same, ~0.03 nM
- B19 — the same, ~0.03 nM
